In paper doi:10.1101/2022.05.21.492554 (2022):

Experiments:
[1] = molecular target: T1, BA.4/5 RBD with BAP-His tag, biotinylated (SARS-CoV-2 Omicron BA.4/5, L452R | F486V | T478K | E484A | N501Y, biotin (on the BAP tag, by co-expressed ER-localized biotin ligase BirA)); experiment: cell-based or functional assay
[2] = molecular target: T1, BA.4/5 RBD with BAP-His tag, …; experiment: SPR; settings: both partners purified

B1: Omi-32 Fab (Fab, V domains shown)
VH: EVQLVESGGGVVQPGRSLRLSCAASGFTFSNYGMHWVRQAPGKGLEWVAVYWYDGGNKFYADSVKGRFTISRDNSKNTLYLQMNSLRVEDTAVYYCARDTAPPDYWGQGTLVTVSS
VL: AIRMTQSPGTLSLSPGERATLSCRASQSISSSFLAWYQQKPGQAPRLLIYGASSRATGIPDRFSGSGSGTDFTLTISRLEPEDFAVYYCQQYGTSPRLTFGGGTKVDIK
pseudoviral neutralization of BA.4/5, fold enhancement compared to BA.2 [1]: 77 fold
fold increase in on-rate against BA.2 RBD [2]: 5 fold
